This experiment addresses S-peptide S-peptide (Bos taurus, UniProt P61823). As to the kind of experiment: ITC.

S-peptide S-peptide, sequence (P61823 27-46): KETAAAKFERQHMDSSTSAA

B1: RNase S-protein S-protein (protein)
chain: SSSNYCNQMMKSRNLTKDRCKPVNTFVHESLADVQAVCSQKNVACKNGQTNCYQSYSTMSITDCRETGSSKYPNCAYKTTQANKHIIVACEGNPYVPVHFDASV
In general, Kd refers to the free concentration of one partner at which half of the binding sites on the other are occupied at equilibrium, for simple one-to-one binding. A lower Kd goes with tighter binding. On to B1, for which the Kd stood at 130 nM.

For the origin of these results see article PMC6461108 (2019).
